Source: paper PMC2756588

What was measured:
Assay in all cases: SPOT array
Abp1, P15891 = target: T1, Abp1, P15891; details: median of control spots 935
T1 sequence (P15891 535-592, looked up): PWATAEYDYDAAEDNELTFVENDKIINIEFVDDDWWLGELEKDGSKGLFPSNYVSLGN

Bbc1, P47068 = target: T2, Bbc1, P47068; details: median of control spots 796
T2 sequence (P47068 1-78, looked up): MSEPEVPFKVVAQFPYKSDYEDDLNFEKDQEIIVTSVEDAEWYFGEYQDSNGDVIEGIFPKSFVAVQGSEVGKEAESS

Bem1-1, P29366 = details: median of control spots 4282
Bem1-2, P29366 = details: median of control spots 4347
Boi1, P38041 = target: T3, Boi1, P38041; details: median of control spots 1162
T3 sequence (P38041 1-86, looked up): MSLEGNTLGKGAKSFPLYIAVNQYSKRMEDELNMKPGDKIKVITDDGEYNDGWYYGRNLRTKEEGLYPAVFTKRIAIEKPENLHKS

Boi2, P39969 = target: T4, Boi2, P39969; details: median of control spots 1161
T4 sequence (P39969 32-116, looked up): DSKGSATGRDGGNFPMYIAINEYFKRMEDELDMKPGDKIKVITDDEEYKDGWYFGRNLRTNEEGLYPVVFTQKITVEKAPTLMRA

Bud14, P27637 = target: T5, Bud14, P27637; details: median of control spots 956
T5 sequence (P27637 247-328, looked up): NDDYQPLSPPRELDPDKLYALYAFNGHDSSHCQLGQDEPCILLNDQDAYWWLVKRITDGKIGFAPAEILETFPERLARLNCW

Bzz1-1, P38822 = target: T6, Bzz1-1, P38822; details: median of control spots 4446
T6 sequence (P38822 478-572, looked up): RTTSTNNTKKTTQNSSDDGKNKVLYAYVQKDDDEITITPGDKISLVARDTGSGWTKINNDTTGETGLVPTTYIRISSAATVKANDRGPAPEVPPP

Bzz1-2, P38822 = target: T7, Bzz1-2, P38822; details: median of control spots 4538
T7 sequence (P38822 568-633, looked up): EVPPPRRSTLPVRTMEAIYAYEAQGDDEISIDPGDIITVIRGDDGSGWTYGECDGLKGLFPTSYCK

Cdc25, P04821 = target: T8, Cdc25, P04821; details: median of control spots 969
T8 sequence (P04821 50-136, looked up): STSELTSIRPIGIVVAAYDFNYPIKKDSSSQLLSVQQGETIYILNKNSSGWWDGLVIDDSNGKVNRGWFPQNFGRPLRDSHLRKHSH

Cyk3, Q07533 = target: T9, Cyk3, Q07533; details: median of control spots 1451
T9 sequence (Q07533 1-83, looked up): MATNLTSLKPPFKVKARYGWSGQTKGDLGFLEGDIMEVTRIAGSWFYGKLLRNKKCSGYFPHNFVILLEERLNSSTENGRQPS

Fus1, P11710 = target: T10, Fus1, P11710; details: median of control spots 1200
T10 sequence (P11710 432-512, looked up): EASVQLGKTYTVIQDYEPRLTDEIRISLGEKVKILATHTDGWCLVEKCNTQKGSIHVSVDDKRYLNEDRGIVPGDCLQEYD

GST = details: median of control spots 978
Hof1, Q05080 = target: T11, Hof1, Q05080; details: median of control spots 4086
T11 sequence (Q05080 590-669, looked up): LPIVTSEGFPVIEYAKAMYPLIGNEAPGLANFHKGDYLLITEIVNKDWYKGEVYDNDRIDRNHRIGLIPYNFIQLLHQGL

Hse1, P38753 = target: T12, Hse1, P38753; details: median of control spots 1727
T12 sequence (P38753 208-285, looked up): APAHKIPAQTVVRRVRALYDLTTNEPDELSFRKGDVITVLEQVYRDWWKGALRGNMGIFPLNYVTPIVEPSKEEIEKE

Lsb1, P53281 = target: T13, Lsb1, P53281; details: median of control spots 388
T13 sequence (P53281 45-122, looked up): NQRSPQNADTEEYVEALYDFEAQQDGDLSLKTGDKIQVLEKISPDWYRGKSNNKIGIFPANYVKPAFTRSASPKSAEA

Lsb3, P43603 = target: T14, Lsb3, P43603; details: median of control spots 406
T14 sequence (P43603 385-451, looked up): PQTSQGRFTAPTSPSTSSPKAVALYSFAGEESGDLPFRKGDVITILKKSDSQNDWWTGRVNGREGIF

Lsb4, P32793 = target: T15, Lsb4, P32793; details: median of control spots 397
T15 sequence (P32793 402-468, looked up): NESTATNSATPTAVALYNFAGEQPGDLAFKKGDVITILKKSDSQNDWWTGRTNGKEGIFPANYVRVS

Myo3, P36006 = details: median of control spots 468
Myo5, Q04439 = target: T16, Myo5, Q04439; details: median of control spots 471
T16 sequence (Q04439 1072-1160, looked up): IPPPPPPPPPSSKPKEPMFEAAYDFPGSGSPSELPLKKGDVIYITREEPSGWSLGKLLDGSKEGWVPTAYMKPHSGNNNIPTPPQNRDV

Nbp2, Q12163 = target: T17, Nbp2, Q12163; details: median of control spots 357
T17 sequence (Q12163 103-180, looked up): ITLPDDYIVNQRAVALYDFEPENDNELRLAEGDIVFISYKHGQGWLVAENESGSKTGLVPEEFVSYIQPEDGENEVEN

Pex13, P80667 = target: T18, Pex13, P80667; details: median of control spots 1341
T18 sequence (P80667 295-386, looked up): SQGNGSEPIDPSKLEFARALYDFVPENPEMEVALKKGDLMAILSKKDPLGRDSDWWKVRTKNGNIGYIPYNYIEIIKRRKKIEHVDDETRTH

Pin3, Q06449 = target: T19, Pin3, Q06449; details: median of control spots 2171
T19 sequence (Q06449 53-122, looked up): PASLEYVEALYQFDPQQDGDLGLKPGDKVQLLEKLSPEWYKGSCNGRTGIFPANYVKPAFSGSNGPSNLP

Rvs167, P39743 = details: median of control spots 2707
Sho1, P40073 = details: median of control spots 1148
Sla1-2, P32790 = target: T20, Sla1-2, P32790; details: median of control spots 712
T20 sequence (P32790 60-140, looked up): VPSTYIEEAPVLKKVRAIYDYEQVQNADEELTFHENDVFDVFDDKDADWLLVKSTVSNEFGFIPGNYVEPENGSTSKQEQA

Sla1-3, P32790 = target: T21, Sla1-3, P32790; details: median of control spots 5475
T21 sequence (P32790 344-424, looked up): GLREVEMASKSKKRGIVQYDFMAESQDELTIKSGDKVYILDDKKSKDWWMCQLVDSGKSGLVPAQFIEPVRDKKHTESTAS

Sho1, P40073, sequence (P40073 287-367): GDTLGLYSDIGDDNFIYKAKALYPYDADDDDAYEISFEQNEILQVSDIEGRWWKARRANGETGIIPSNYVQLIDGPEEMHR
Bem1-2, P29366, sequence (P29366 139-227): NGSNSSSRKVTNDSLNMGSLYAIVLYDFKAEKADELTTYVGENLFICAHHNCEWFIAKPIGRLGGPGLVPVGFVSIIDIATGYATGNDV
Bem1-1, P29366, sequence (P29366 55-141): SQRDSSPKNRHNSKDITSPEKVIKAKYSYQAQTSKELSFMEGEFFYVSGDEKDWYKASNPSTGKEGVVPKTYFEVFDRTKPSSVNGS
Rvs167, P39743, sequence (P39743 419-482): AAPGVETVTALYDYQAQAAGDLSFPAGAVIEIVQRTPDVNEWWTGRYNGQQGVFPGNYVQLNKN

DKSRPPRPPPKPLHL
SPOT intensity (Abp1, P15891): 675 | SPOT intensity (Bbc1, P47068): 5 | SPOT intensity (Bem1-1, P29366): 0 | SPOT intensity (Bem1-2, P29366): 57 | SPOT intensity (Boi1, P38041): 0 | SPOT intensity (Boi2, P39969): 0 | SPOT intensity (Bud14, P27637): 1 | SPOT intensity (Bzz1-1, P38822): 36 | SPOT intensity (Bzz1-2, P38822): 1 | SPOT intensity (Cdc25, P04821): 0 | SPOT intensity (Cyk3, Q07533): 0 | SPOT intensity (Fus1, P11710): 0 | SPOT intensity (GST): 0 | SPOT intensity (Hof1, Q05080): 0 | SPOT intensity (Hse1, P38753): 36 | SPOT intensity (Lsb1, P53281): 4 | SPOT intensity (Lsb3, P43603): 216 | SPOT intensity (Lsb4, P32793): 177 | SPOT intensity (Myo3, P36006): 160 | SPOT intensity (Myo5, Q04439): 44 | SPOT intensity (Nbp2, Q12163): 0 | SPOT intensity (Pex13, P80667): 144 | SPOT intensity (Pin3, Q06449): 0 | SPOT intensity (Rvs167, P39743): 0 | SPOT intensity (Sho1, P40073): 155 | SPOT intensity (Sla1-2, P32790): 0 | SPOT intensity (Sla1-3, P32790): 0

KDKSRPPRPPPKPLH
SPOT intensity (Abp1, P15891): 339 | SPOT intensity (Bbc1, P47068): 4 | SPOT intensity (Bem1-1, P29366): 0 | SPOT intensity (Bem1-2, P29366): 0 | SPOT intensity (Boi1, P38041): 2 | SPOT intensity (Boi2, P39969): 0 | SPOT intensity (Bud14, P27637): 0 | SPOT intensity (Bzz1-1, P38822): 50 | SPOT intensity (Bzz1-2, P38822): 0 | SPOT intensity (Cdc25, P04821): 2 | SPOT intensity (Cyk3, Q07533): 0 | SPOT intensity (Fus1, P11710): 0 | SPOT intensity (GST): 0 | SPOT intensity (Hof1, Q05080): 0 | SPOT intensity (Hse1, P38753): 20 | SPOT intensity (Lsb1, P53281): 7 | SPOT intensity (Lsb3, P43603): 162 | SPOT intensity (Lsb4, P32793): 114 | SPOT intensity (Myo3, P36006): 104 | SPOT intensity (Myo5, Q04439): 10 | SPOT intensity (Nbp2, Q12163): 2 | SPOT intensity (Pex13, P80667): 8 | SPOT intensity (Pin3, Q06449): 0 | SPOT intensity (Rvs167, P39743): 0 | SPOT intensity (Sho1, P40073): 202 | SPOT intensity (Sla1-2, P32790): 0 | SPOT intensity (Sla1-3, P32790): 1

RPPRPPPKPLHLRTE
SPOT intensity (Abp1, P15891): 692 | SPOT intensity (Bbc1, P47068): 15 | SPOT intensity (Bem1-1, P29366): 4 | SPOT intensity (Bem1-2, P29366): 458 | SPOT intensity (Boi1, P38041): 0 | SPOT intensity (Boi2, P39969): 3 | SPOT intensity (Bud14, P27637): 0 | SPOT intensity (Bzz1-1, P38822): 30 | SPOT intensity (Bzz1-2, P38822): 38 | SPOT intensity (Cdc25, P04821): 0 | SPOT intensity (Cyk3, Q07533): 0 | SPOT intensity (Fus1, P11710): 0 | SPOT intensity (GST): 0 | SPOT intensity (Hof1, Q05080): 3 | SPOT intensity (Hse1, P38753): 539 | SPOT intensity (Lsb1, P53281): 266 | SPOT intensity (Lsb3, P43603): 306 | SPOT intensity (Lsb4, P32793): 201 | SPOT intensity (Myo3, P36006): 121 | SPOT intensity (Myo5, Q04439): 33 | SPOT intensity (Nbp2, Q12163): 86 | SPOT intensity (Pex13, P80667): 479 | SPOT intensity (Pin3, Q06449): 5 | SPOT intensity (Rvs167, P39743): 12 | SPOT intensity (Sho1, P40073): 780 | SPOT intensity (Sla1-2, P32790): 1 | SPOT intensity (Sla1-3, P32790): 43

ALKQKKIPPPFKPHL
SPOT intensity (Abp1, P15891): 42 | SPOT intensity (Bbc1, P47068): 0 | SPOT intensity (Bem1-1, P29366): 0 | SPOT intensity (Bem1-2, P29366): 0 | SPOT intensity (Boi1, P38041): 0 | SPOT intensity (Boi2, P39969): 0 | SPOT intensity (Bud14, P27637): 0 | SPOT intensity (Bzz1-1, P38822): 0 | SPOT intensity (Bzz1-2, P38822): 0 | SPOT intensity (Cdc25, P04821): 0 | SPOT intensity (Cyk3, Q07533): 0 | SPOT intensity (Fus1, P11710): 0 | SPOT intensity (GST): 0 | SPOT intensity (Hof1, Q05080): 0 | SPOT intensity (Hse1, P38753): 0 | SPOT intensity (Lsb1, P53281): 0 | SPOT intensity (Lsb3, P43603): 0 | SPOT intensity (Lsb4, P32793): 0 | SPOT intensity (Myo3, P36006): 0 | SPOT intensity (Myo5, Q04439): 0 | SPOT intensity (Nbp2, Q12163): 0 | SPOT intensity (Pex13, P80667): 0 | SPOT intensity (Pin3, Q06449): 0 | SPOT intensity (Rvs167, P39743): 0 | SPOT intensity (Sho1, P40073): 0 | SPOT intensity (Sla1-2, P32790): 0 | SPOT intensity (Sla1-3, P32790): 0
